Experiment [1] deals with FcγRIIIa (CD16) on Natural Killer (NK) cells (UniProt P08637). Nature of the experiment: FACS on NK cells (CD56+) in PBMCs, antibody 20 µg/ml, FITC anti-human IgG (Fc) detection.
For experiment [2], the target named is Positive Control (Table 3). Nature of the experiment: SPR solution competition: soluble CD16a (0-1000 nM) inhibits binding of 10 nM analyte to immobilized His-CD16a.
Experiment [3] addresses afucosylated anti-CCR5 antibody (afucosylated Ab). Nature of the experiment: SPR solution competition: soluble CD16a (0-1000 nM) inhibits binding of 10 nM antibody to immobilized His-CD16a.
Experiment [4] has as its target wildtype anti-CCR5 antibody (WT Ab, 8% afucosylated). The experiment is described as above.

Chain of UniProt P08637 (P08637 17-254 limits assumed): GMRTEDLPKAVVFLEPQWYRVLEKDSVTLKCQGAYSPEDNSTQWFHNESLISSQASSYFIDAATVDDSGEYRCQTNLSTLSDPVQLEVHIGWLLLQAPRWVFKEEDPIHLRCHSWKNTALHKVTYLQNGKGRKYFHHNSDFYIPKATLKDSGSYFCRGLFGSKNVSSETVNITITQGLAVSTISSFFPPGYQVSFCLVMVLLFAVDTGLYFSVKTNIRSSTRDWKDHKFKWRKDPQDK

“human IgG4 (The Binding Site) (antibody)” showed a Bmax compared to 100% Bmax for human IgG1 in experiment [1] of less than 30%.
With “soluble CD16a (from UniProt P08637 17-208) (receptor)”, the results for the IC50 in experiment [2], in experiment [3] and in experiment [4] were 10 nM, 9 nM and 14 nM, respectively.

The values are drawn from patent US20090226434A1.
